Source: paper PMC9140497

Target: α2β1 integrin (human (endogenous in HT1080)) (UniProt P17301)
Chain of UniProt P17301 (P17301 30-1181, chain 1 of 2): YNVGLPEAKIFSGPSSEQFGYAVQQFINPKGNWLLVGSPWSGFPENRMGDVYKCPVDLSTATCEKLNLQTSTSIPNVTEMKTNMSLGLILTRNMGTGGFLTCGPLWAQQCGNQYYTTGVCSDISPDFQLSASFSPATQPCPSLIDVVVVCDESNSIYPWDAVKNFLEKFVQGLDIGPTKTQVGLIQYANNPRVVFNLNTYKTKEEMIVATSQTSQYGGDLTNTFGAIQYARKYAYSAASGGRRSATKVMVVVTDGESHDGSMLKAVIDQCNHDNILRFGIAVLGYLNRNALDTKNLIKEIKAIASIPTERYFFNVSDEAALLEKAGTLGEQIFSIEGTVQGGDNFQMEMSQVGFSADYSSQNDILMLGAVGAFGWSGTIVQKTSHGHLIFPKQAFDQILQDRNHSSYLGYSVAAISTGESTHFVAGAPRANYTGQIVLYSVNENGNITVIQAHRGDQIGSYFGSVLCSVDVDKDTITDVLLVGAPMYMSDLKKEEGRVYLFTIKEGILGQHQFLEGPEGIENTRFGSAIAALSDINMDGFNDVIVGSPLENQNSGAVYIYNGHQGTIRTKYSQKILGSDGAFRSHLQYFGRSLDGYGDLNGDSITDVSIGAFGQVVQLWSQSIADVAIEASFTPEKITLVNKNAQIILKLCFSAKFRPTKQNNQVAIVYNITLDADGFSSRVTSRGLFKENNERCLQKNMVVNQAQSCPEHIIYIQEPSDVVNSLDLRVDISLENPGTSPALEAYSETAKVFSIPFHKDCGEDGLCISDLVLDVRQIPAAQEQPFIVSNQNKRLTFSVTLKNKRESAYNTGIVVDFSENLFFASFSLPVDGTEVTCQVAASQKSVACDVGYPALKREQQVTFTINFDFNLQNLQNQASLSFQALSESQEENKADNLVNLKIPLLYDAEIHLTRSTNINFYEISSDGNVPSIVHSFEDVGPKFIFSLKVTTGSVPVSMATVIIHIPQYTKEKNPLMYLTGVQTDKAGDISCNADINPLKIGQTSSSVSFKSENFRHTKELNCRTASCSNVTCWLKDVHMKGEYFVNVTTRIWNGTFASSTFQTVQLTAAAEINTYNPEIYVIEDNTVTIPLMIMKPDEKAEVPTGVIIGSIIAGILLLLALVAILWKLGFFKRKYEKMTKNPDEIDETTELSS
Chain of UniProt P17301 (P05556 21-798, chain 2 of 2, further chain): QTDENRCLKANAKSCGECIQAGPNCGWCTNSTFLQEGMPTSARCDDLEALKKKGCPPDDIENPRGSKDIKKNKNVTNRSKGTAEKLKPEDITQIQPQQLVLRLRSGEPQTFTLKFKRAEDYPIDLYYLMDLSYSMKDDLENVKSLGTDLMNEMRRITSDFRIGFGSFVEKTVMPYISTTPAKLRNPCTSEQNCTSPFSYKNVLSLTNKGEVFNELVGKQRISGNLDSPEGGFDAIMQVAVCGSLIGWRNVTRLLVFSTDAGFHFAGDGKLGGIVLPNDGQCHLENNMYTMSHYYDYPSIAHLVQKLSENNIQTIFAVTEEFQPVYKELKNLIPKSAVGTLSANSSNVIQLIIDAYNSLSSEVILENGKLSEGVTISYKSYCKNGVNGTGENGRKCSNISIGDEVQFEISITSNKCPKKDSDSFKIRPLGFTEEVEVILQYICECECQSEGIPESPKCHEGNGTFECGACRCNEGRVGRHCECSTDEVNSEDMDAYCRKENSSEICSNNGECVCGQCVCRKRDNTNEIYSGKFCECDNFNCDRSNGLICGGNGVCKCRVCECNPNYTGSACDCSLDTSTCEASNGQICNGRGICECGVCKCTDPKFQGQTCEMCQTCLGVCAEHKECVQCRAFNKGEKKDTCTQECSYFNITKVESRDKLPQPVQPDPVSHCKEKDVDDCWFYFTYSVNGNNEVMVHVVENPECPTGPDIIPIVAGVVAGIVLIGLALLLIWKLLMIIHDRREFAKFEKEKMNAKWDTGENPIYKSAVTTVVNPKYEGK

Rat Tail Collagen (from UniProt P02454 152-1207; P02466 86-1125) (natural protein)
adhesion of HT1080 cells pre-incubated with 10 μg/mL mAb13 (anti-β1) on RTC-modified hydrogel: 15%

GFOGER peptide
adhesion of HT1080 cells pre-incubated with 10 μg/mL mAb13 (anti-β1) on Fmoc-FF/S/GFOGER hydrogel: 23%
